# According to article PMC7911073, “Overproduction of Human Zip (SLC39) Zinc Transporters in Saccharomyces cerevisiae for Biophysical Characterization” (Cells, 2021):
# B1: StrepII-TEV-hZIP1 (natural protein, human, UniProt Q9NY26 1-324, looked up)
# chain: MGPWGEPELLVWRPEAVASEPPVPVGLEVKLGALVLLLVLTLLCSLVPICVLRRPGANHEGSASRQKALSLVSCFAGGVFLATCLLDLLPDYLAAIDEALAALHVTLQFPLQEFILAMGFFLVLVMEQITLAYKEQSGPSPLEETRALLGTVNGGPQHWHDGPGVPQASGAPATPSALRACVLVFSLALHSVFEGLAVGLQRDRARAMELCLALLLHKGILAVSLSLRLLQSHLRAQVVAGCGILFSCMTPLGIGLGAALAESAGPLHQLAQSVLEGMAAGTFLYITFLEILPQELASSEQRILKVILLLAGFALLTGLLFIQI
# notes: human ZIP1 (hZIP1), full-length, codon-optimized cDNA; UniProt Q9NY26; A TEV protease site stands between the StrepII tag and hZIP1; not cleaved here; Predicted MW 36.5 kDa; also called N-terminal hZIP1 fusion; not shown: StrepII, N-terminal, kept
# B2: hZIP1-TEV-GFP-His (natural protein, human, UniProt Q9NY26 1-324, looked up)
# chain: MGPWGEPELLVWRPEAVASEPPVPVGLEVKLGALVLLLVLTLLCSLVPICVLRRPGANHEGSASRQKALSLVSCFAGGVFLATCLLDLLPDYLAAIDEALAALHVTLQFPLQEFILAMGFFLVLVMEQITLAYKEQSGPSPLEETRALLGTVNGGPQHWHDGPGVPQASGAPATPSALRACVLVFSLALHSVFEGLAVGLQRDRARAMELCLALLLHKGILAVSLSLRLLQSHLRAQVVAGCGILFSCMTPLGIGLGAALAESAGPLHQLAQSVLEGMAAGTFLYITFLEILPQELASSEQRILKVILLLAGFALLTGLLFIQI
# notes: human ZIP1 (hZIP1), full-length, codon-optimized cDNA synthesized by GenScript; UniProt Q9NY26; A TEV protease site (ENLYFQ↓SQF) stands between hZIP1 and GFP-His8; the fusion could not be cleaved by TEV protease; Predicted MW 63.3 kDa; also called hZIP1 C-terminally fused to TEV-GFP-His-tag; SLC39 family member; source: S. cerevisiae PAP1500, in whole-cell lysate; also purified from crude …
# B3: His-TEV-hZIP1 (natural protein, human, UniProt Q9NY26 1-324, looked up)
# chain: MGPWGEPELLVWRPEAVASEPPVPVGLEVKLGALVLLLVLTLLCSLVPICVLRRPGANHEGSASRQKALSLVSCFAGGVFLATCLLDLLPDYLAAIDEALAALHVTLQFPLQEFILAMGFFLVLVMEQITLAYKEQSGPSPLEETRALLGTVNGGPQHWHDGPGVPQASGAPATPSALRACVLVFSLALHSVFEGLAVGLQRDRARAMELCLALLLHKGILAVSLSLRLLQSHLRAQVVAGCGILFSCMTPLGIGLGAALAESAGPLHQLAQSVLEGMAAGTFLYITFLEILPQELASSEQRILKVILLLAGFALLTGLLFIQI
# notes: human ZIP1 (hZIP1), full-length, codon-optimized cDNA; UniProt Q9NY26; A TEV protease site stands between the His8 tag and hZIP1; also called N-terminal hZIP1 fusion; source: S. cerevisiae PAP1500, purified from crude membranes solubilized in 2% DDM + 0.2% CHS (IMAC); not shown: His8, N-terminal, kept
# Tests used:
# [1] = target: the molecule itself; assay: SDS-PAGE with Coomassie staining of SEC-pure samples (monomer and dimer bands); fractions of the main SEC peak in DDM + CHS
# [2] = target: the molecule itself; assay: SDS-PAGE with Coomassie staining and in-gel GFP fluorescence (monomer and dimer bands); IMAC eluate of hZIP1-TEV-GFP-His solubilized in 2% DDM + 0.68% CHS
# [3] = target: the molecule itself; assay: SDS-PAGE with Coomassie staining and immunoblot by the tag (monomer and dimer bands); affinity-pure fractions (IMAC or StrepII-tag affinity) of N-terminal hZIP1 fusions solubilized in 2% DDM + 0.2% CHS; blot with 6xHis mAb-HRP or Strep-Tactin HRP
protein,measurement,setting,value
B1,binding result,[1],binds
B2,binding result,[2],binds
B3,binding result,[3],binds
